Measurements as given in the FLAb antibody collection (doi:10.7554/elife.23156).

B1: scFv; the commonest letter at each place (parent)
chain 1: EVKLDETGGGLVQPGRPMKLSCVASGFTFSDYWMNWVRQSPEKGLEWVAQIRNKPYNYETYYSDSVKGRFTISRDDSKSSVYLQMNNLRVEDMGIYYCTGSYYGMDYWGQGTSVTVS
chain 2: DVVMTQTPLSLPVSLGDQASISCRSSQSLVHSNGNTYLRWYLQKPGQSPKVLIYKVSNRFSGVPDRFSGSGSGTDFTLKISRVEAEDLGVYFCSQSTHVPWTFGGGTKLEIK

How the values were obtained:
fluorescein = variants of: B1; assay: Kd (Tite-Seq); conditions: with fluorescein; format: scFv 4-4-20, heavy + light
[1] = variants of: B1; assay: yeast surface expression (ratio to wild type); higher = more expressed; conditions: format: scFv 4-4-20, heavy + light

Variant	Kd (fluorescein)	yeast surface expression [1]
chain 1 G104D M105L	≥ 10 µM	1.07
chain 1 F29C N35K	≥ 10 µM	1.18
chain 1 F29C N35I	≥ 10 µM	1.12
chain 1 W33S M34T	≥ 10 µM	0.463
chain 1 D31F N35I	≥ 10 µM	1.11
chain 1 M105D W108T	≥ 10 µM	0.455
chain 1 Y102T	0.00894 µM	0.932
chain 1 S30C D31F	5.96 µM	0.592
chain 1 S101T Y103Q G109I	≥ 10 µM	0.258
chain 1 G100E	≥ 10 µM	0.388
chain 1 Y107K W108A	≥ 10 µM	0.575
chain 1 S101N M105P	≥ 10 µM	0.537
chain 1 T28A N35C	≥ 10 µM	0.665
chain 1 W33F W36L	≥ 10 µM	0.594
chain 1 G100H S101G	≥ 10 µM	0.649
chain 1 S101Y Y102P	≥ 10 µM	0.326
chain 1 Y103E W108C	0.0221 µM	0.758
chain 1 M34R N35M	≥ 10 µM	1.25
chain 1 T28W F29R	≥ 10 µM	0.615
chain 1 D106W	≥ 10 µM	0.339
chain 1 D106T	0.00785 µM	1.09
chain 1 T28S S30T W33R	≥ 10 µM	0.708
chain 1 S30G	0.00067 µM	1.12
chain 1 W36I	1.33 µM	0.756

Variant	Kd (fluorescein)	yeast surface expression [1]
chain 1 W36Y	0.00532 µM	0.923
chain 1 W36R	8.34 µM	0.957
chain 1 W36P	≥ 10 µM	0.871
chain 1 W33D W36M	≥ 10 µM	0.165
chain 1 Y102M Y107S	≥ 10 µM	0.685
chain 1 F29I W36L	≥ 10 µM	0.729
chain 1 D31R Y32K V37Y	≥ 10 µM	1.3
chain 1 Y107N	0.0104 µM	0.775
chain 1 G100R Y103I	≥ 10 µM	0.418
chain 1 M105D D106G	≥ 10 µM	0.347
chain 1 D31S V37P	≥ 10 µM	0.675
chain 1 F29Y M34E	≥ 10 µM	0.542
chain 1 W108F	≤ 0.000316 µM	0.644
chain 1 G104Q D106K	≥ 10 µM	0.274
chain 1 M105C D106S	3.37 µM	0.728
chain 1 S30R Y32Q	≥ 10 µM	1.13
chain 1 Y102L D106G	≥ 10 µM	0.569
chain 1 G100R G104Q	≥ 10 µM	0.217
chain 1 S101D Y102P	≥ 10 µM	0.719
chain 1 Y103M Y107W	0.00204 µM	0.871
chain 1 S101H G109V	≥ 10 µM	0.231
chain 1 Y102H M105P	≥ 10 µM	0.764
chain 1 W108Q G109E	≥ 10 µM	0.459
chain 1 Y32T V37E	≥ 10 µM	0.222

Variant	Kd (fluorescein)	yeast surface expression [1]
chain 1 F29I S30E	0.00343 µM	0.929
chain 1 Y103I D106A	≥ 10 µM	0.489
chain 1 F29P D31A M34A	≥ 10 µM	0.567
chain 1 T28C S30K	0.00104 µM	0.943
chain 1 W33G M34I	≥ 10 µM	0.433
chain 1 S101R W108V	≥ 10 µM	0.24
chain 1 S101R W108H	≥ 10 µM	0.261
chain 1 M105L	0.00519 µM	0.924
chain 1 G100W Y102S	0.00606 µM	0.723
chain 1 D106A G109H	≥ 10 µM	0.448
chain 1 W33G W36I	≥ 10 µM	0.622
chain 1 Y102D D106T	≥ 10 µM	1.12
chain 1 S101C Y107G	≥ 10 µM	0.245
chain 1 T28H V37L	3.43 µM	0.691
chain 1 G104R G109C	≥ 10 µM	0.5
chain 1 N35V V37Y	≥ 10 µM	0.727
chain 1 T28H W36G	≥ 10 µM	2.76
chain 1 T28H W36L	≥ 10 µM	0.454
chain 1 S101C Y103V D106I	≥ 10 µM	0.168
chain 1 Y32D W33V	≥ 10 µM	0.594
chain 1 T28P Y32D W36I	≥ 10 µM	0.789
chain 1 D31N W36I	0.0287 µM	0.679

Second part, led by results:

Kd (fluorescein)	Variant	yeast surface expression [1]
0.136 µM	chain 1 D106N Y107I G109S	0.679
≥ 10 µM	chain 1 F29W D31F	0.475
≥ 10 µM	chain 1 N35C V37K	0.542
≥ 10 µM	chain 1 S101H Y107R W108C	0.22
≥ 10 µM	chain 1 M105A Y107M	0.661
≥ 10 µM	chain 1 W33P M34H	0.508
≥ 10 µM	chain 1 W108E G109T	0.269
0.0729 µM	chain 1 T28N V37A	0.941
0.122 µM	chain 1 Y107V	1.15
0.000784 µM	chain 1 Y107T	0.965
≥ 10 µM	chain 1 W108C G109E	0.262
0.00184 µM	chain 1 T28Y D31Y	0.779
≥ 10 µM	chain 1 S101E W108G	0.368
≥ 10 µM	chain 1 S101Q G104P	0.539
≥ 10 µM	chain 1 S30E M34W N35M	0.493
5.37 µM	chain 1 M34G N35P	0.778
≥ 10 µM	chain 1 G104A D106K	0.362
≥ 10 µM	chain 1 T28D D31E V37E	0.567
≥ 10 µM	chain 1 S30F N35T W36P	1.41
0.0038 µM	chain 1 T28W	0.893
0.000988 µM	chain 1 T28K	1.07
0.000763 µM	chain 1 T28Q	1.06
≥ 10 µM	chain 1 N35R W36K	2.76

Kd (fluorescein)	Variant	yeast surface expression [1]
≥ 10 µM	chain 1 Y32P W33I	0.908
≥ 10 µM	chain 1 W36F V37Y	0.738
≥ 10 µM	chain 1 S30W W36D	0.104
≥ 10 µM	chain 1 S101D W108Y	0.608
≥ 10 µM	chain 1 S101I Y102M	0.621
0.00343 µM	chain 1 F29S D31Y	0.752
0.195 µM	chain 1 Y32P N35K	0.466
0.00122 µM	chain 1 V37D	1.05
1.08 µM	chain 1 V37R	0.716
≥ 10 µM	chain 1 W108L G109R	0.296
≥ 10 µM	chain 1 Y32F W33Q	1.23
0.0233 µM	chain 1 M105N	0.844
≥ 10 µM	chain 1 Y32K W33E	0.552
≤ 0.000316 µM	chain 1 G100A W108Y	0.892
≥ 10 µM	chain 1 S101T Y102M	0.778
0.0269 µM	chain 1 T28S F29S	1.17
≥ 10 µM	chain 1 F29R V37N	0.445
≥ 10 µM	chain 1 G104Y M105N	1.13
≥ 10 µM	chain 1 G100V G109L	0.256
≥ 10 µM	chain 1 S101L Y102W	0.407
≥ 10 µM	chain 1 F29P W36A	0.456
≥ 10 µM	chain 1 F29Q W33I	0.707
